Assay results reported in patent publication US20070185028A1, “Compositions and methods for treatment of protein misfolding and protein aggregation diseases” (priority 2004, published 2007).

biological target: T1, porcine citrate synthase (CS) (Sus scrofa, UniProt P00889); experiment: αB crystallin protein pin array with citrate synthase; type: binding; conditions: CS as target protein in the pin array
T1 construct: purchased Roche Diagnostics, IN 103 381
T1 sequence (P00889 28-464): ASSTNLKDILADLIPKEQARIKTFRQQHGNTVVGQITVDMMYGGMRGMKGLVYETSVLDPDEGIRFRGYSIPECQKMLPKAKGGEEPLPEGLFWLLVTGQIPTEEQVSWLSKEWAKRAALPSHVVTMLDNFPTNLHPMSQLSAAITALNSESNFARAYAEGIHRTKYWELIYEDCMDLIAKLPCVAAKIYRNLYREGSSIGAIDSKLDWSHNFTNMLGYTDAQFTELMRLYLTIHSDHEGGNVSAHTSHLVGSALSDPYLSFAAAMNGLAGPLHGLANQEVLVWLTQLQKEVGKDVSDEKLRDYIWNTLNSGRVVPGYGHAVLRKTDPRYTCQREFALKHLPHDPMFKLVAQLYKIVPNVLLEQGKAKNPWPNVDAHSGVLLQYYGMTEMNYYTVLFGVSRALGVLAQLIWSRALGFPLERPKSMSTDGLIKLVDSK
Description: Synthesis of Pins, binding and detection of peptides binding to ligand proteins. The αB crystallin protein pin array was used to measure the interaction between peptides and chaperone target proteins including bovine βH crystallin, human γD crystallin, equine alcohol dehydrogenase (ADH) and porcine citrate synthase (CS) as described (FIG. 12). Ghosh and Clark, Protein Sci 14: 684-95, 2005.
Refer to the methods section for detailed protocols. The absorbance corresponding to the blue coloration in each well was measured at λ=450 nm and plotted against the amino acid sequence of the corresponding peptide in that well (FIGS. 13 and 14). Wells containing peptides that have strong interactions with target proteins are dark blue and wells containing peptides that have weak or no interaction with target proteins are light blue or clear.
The purity of the target proteins used in the pin array assays, bovine βH crystallin, human γD crystallin, equine alcohol dehydrogenase (ADH) and porcine citrate synthase (CS) were determined to be >90% by SDS-PAGE. In addition, primary antibodies for each target protein were specific to that target protein and consequently contaminating proteins that may bind to the peptides will not be detected. Eighty-four sequential and overlapping peptide fragments corresponding to residues 1-175 of human αB crystallin were synthesized employing a simultaneous peptide synthesis strategy developed by Geysen, called Multipin Peptide Synthesis (Mimotopes, San Diego, Calif.). Geysen, Southeast Asian J Trop Med Public Health 21: 523-33, 1990; Chin et al., J Org Chem 62: 538-539, 1997. Peptides were immobilized on derivatized polyethylene pins arranged in a microtiter ELISA plate format. Each peptide was eight amino acids in length and consecutive peptides were offset by two amino acids. All peptides were bound covalently to the surface of the plastic pins. The first peptide was 1MDIAIHHP8 and the last peptide was 168PAVTAAPK175 for human αB crystallin.
Ghosh and Clark, Protein Sci 14: 684-95, 2005. […] The intensity of the blue color in the wells was measured at 450 nm using an ELISA plate-reader (BioTek, Winooski, Vt.). The intensity of the blue color (plotted on the X-axis) was a measure of the interaction between αB crystallin peptides (plotted on the Y-axis) and target proteins. To measure the effect of temperature on the interactions between interactive peptides and the target proteins, the target proteins were heated in a water-bath at 45° C. for fifteen minutes prior to use. Pin arrays are unable to differentiate between monomers, dimers or oligomers of target proteins that exist in solution. Instead, pin arrays are very sensitive detectors of interactions between individual peptides and the entire population (monomers, dimers or oligomers) of specific target proteins that may exist in solution under specific conditions. Each target protein was assayed two to five times. A single pin array was used for all experiments and no change in interactions was observed after more than thirty repetitions. The last three peptides of the protein pin array, 163REEKPAVT170, 165EKPAVTAA172, 167PAVTAAPK174, correspond to the epitope (163REEKPAVTAAPKK175) recognized by the primary antibody for human αB crystallin. A positive reaction is observed for these three peptides in the absence of human αB crystallin as the ligand due to direct binding of the anti-human αB crystallin antibody to these three peptides. The loss of efficiency for the pin array was measured using this assay. The loss of efficiency for the pin array was determined to be <5% by after more than 30 assays.
The pattern of absorbance at λ=450 nm when αB crystallin peptides were assayed with unheated and pre-heated CS was similar to the absorbance pattern obtained with unheated and pre-heated βH/γD crystallin and ADH (FIG. 18). […]

Absorbance at 450 nm, interaction with CS, absorbance maxima:
FSVNLDVK [Peptide 38], LTITSSLS [Peptide 66], WIRRPFFP [Peptide 5]
